# Data: US20260297187 (published 2026)
# Positions count from the first letter of the chain named. Numbers in names are those of the source. Read-outs that look alike come from different tables or passages of the source.
# B1: 4D10.G4 (antibody, V domains shown)
# VH: EVQLQQSGPELVKPGASVKMSCKASGYTFSSYVIHWVRQKPGQGLEWIGYFNPYNNGTNYNENFKGKATLTSGKSSSTAYMELSSLTSEDSAVYYCARYYYASGSLYFDYWGQGTTLTVSS
# VL: EIVLTQSPAIATASLGQKVTITCSASSSVSYMHWYQQKSGTSPKPWIYEISKLASGVPTRFSGSGSGTSYSLTISSMEAEDAAIYYCQQWNYPLITFGAGTKLELK
# B2: h4D10.G4.H4(N56Q Y100F)L2(S28F S51M) (antibody, V domains shown)
# VH: QVQLVQSGAEVKKPGASVKVSCKASGYTFSSYVIHWVRQAPGQGLEWMGYFNPYNQGTNYNENFKGRVTMTADTSTSTVYMELSSLRSEDTAVYYCARYFYASGSLYFDYWGQGTTVTVSS
# VL: DIQMTQSPSTLSASVGDRVTITCSASSFVSYMHWYQQKPGKAPKPLIYEIMKLASGVPSRFSGSGSGTEFTLTISSLQPDDAATYYCQQWNYPLITFGGGTKVEIK
# B3: h9D12.G4.H0aL7 (antibody, V domains shown)
# VH: EVQLVQSGAEVKKPGATVKISCKVSGFNIKDTYMHWVQQAPGKGLEWMGRIDLASGDSKYDPKFQGRVTITADTSTDTAYMELSSLRSEDTAVYYCARAHFGGGNWYFDVWGQGTTVTVSS
# VL: DIQLTQSPSFLSASVGDRVTITCSASSSVSYMHWYQQKPGQAPKPWIYEISKLASGVPSRFSGSGSGTEYTLTISSMQSEDFAVYYCQQWNYPLTFGQGTKLEIK
# B4: h4D10.G4.H4(N56Q Y100F)L2(S51M) (antibody, V domains shown)
# VH: B2 VH
# VL: B2 VL with F28S
# B5: h4D10.G4.H4(N56Q Y100F)L2 (antibody, V domains shown)
# VH: B2 VH
# VL: B2 VL with F28S, M51S
# B6: h4D10.G4.H4(N56Q Y100F)L2(S28F) (antibody, V domains shown)
# VH: B2 VH
# VL: B2 VL with M51S
# B7: h4D10.G4.H4(N56Q Y100F)L2(S28H) (antibody, V domains shown)
# VH: B2 VH
# VL: B2 VL with F28H, M51S
# B8: h9D12.G4.H4L7 (antibody, V domains shown)
# VH: B3 VH with E1Q, T17S, I20V, V24A, Q38R, K43Q, M48I, I70M, D77S, A79V
# VL: B3 VL
# B9: h4D10.G4.H4(N56Q Y100F)L2(S28F K52R) (antibody, V domains shown)
# VH: B2 VH
# VL: B2 VL with M51S, K52R
# B10: h4D10.G4.H4(H35M N56Q Y100F)L2 (antibody, V domains shown)
# VH: B2 VH with H35M
# VL: B2 VL with F28S, M51S
# B11: h4D10.G4.H4(N56Q Y100F)L2(K52R) (antibody, V domains shown)
# VH: B2 VH
# VL: B2 VL with F28S, M51S, K52R
# B12: h4D10.G4.H4(N56Q Y100F)L2(S28F S51M K52R) (antibody, V domains shown)
# VH: B2 VH
# VL: B2 VL with K52R
# What was measured:
# CEACAM1-his [1] = biological target: T1, CEACAM1-his (human); experiment: BLI
# T1 chain: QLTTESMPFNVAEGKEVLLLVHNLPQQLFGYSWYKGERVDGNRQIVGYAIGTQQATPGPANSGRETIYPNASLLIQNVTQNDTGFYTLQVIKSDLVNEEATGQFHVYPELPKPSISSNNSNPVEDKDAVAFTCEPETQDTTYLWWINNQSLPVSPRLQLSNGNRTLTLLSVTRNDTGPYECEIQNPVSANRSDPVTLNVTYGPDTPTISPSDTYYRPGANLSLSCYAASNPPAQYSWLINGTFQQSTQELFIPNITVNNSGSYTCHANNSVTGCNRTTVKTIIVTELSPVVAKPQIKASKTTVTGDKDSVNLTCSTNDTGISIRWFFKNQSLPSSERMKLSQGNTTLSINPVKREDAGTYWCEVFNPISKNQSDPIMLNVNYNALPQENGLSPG
# CEACAM1-his [2] = biological target: T1, CEACAM1-his; experiment: BLI
# CEACAM1-his [3] = biological target: T1, CEACAM1-his; experiment: BLI
# CEACAM1-his [4] = biological target: T1, CEACAM1-his; experiment: BLI
# CEACAM1-his [5] = biological target: T1, CEACAM1-his; experiment: BLI
# CEACAM1 (cell surface) = CEACAM1 (cell surface) (human); experiment: FACS, BxPC-3
# Sequence of CEACAM1 (cell surface) (human) (chain, as listed by the source): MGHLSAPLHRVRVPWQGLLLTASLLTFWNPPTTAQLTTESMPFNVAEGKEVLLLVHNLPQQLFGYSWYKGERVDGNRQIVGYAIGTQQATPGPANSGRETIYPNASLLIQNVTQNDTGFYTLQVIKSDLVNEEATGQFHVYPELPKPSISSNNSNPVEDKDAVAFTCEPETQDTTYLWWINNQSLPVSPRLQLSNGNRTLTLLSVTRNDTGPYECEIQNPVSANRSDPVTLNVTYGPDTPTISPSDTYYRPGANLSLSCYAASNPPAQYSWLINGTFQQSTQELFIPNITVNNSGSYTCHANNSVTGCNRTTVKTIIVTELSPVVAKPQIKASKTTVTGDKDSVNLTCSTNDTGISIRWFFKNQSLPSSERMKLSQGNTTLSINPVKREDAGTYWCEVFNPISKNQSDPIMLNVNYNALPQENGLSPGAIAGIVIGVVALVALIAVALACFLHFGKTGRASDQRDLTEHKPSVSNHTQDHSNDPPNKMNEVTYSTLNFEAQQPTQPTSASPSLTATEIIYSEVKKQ
binder,measurement,setting,value
B1,Kd,CEACAM1-his [1],1.89 nM
same,Kd,CEACAM1-his [2],1.82 nM
B2,Kd,CEACAM1-his [3],0.362 nM
B3,Kd,CEACAM1-his [4],3.39 nM
same,Kd,CEACAM1-his [5],3.39 nM
B4,Kd,CEACAM1-his [3],0.784 nM
B5,Kd,CEACAM1-his [5],2.02 nM
same,Kd,CEACAM1-his [2],3.31 nM
same,EC50,CEACAM1 (cell surface),0.0211 µg/mL
B6,Kd,CEACAM1-his [3],0.3 nM
B7,Kd,CEACAM1-his [3],0.956 nM
B8,Kd,CEACAM1-his [4],2.46 nM
same,Kd,CEACAM1-his [5],2.46 nM
B9,Kd,CEACAM1-his [3],0.268 nM
B10,Kd,CEACAM1-his [3],0.394 nM
B11,Kd,CEACAM1-his [3],0.801 nM
B12,Kd,CEACAM1-his [3],0.151 nM
